The values that follow come from US20080026996A1, “Selective Vpac2 Receptor Reptide Agonists” (ELI LILLY AND COMPANY, priority 2004, published 2008).

Where no end group is shown, it is not given here. [ ]: non-standard residue; d: D form. The star is where a group is joined. hArg = N=C(N)NCCCC[C@H](N)C(=O)O; Nle = CCCC[C@H](N)C(=O)O; Orn = NCCC[C@H](N)C(=O)O; Hexanoyl = CCCCCC(=O)*; Aib = CC(C)(N)C(=O)O Bounds are passed on as bounds.

For data set [1], the target named is T1, rat VPAC2 receptor (Rattus norvegicus, UniProt P35000).
T1 sequence (P35000 23-437): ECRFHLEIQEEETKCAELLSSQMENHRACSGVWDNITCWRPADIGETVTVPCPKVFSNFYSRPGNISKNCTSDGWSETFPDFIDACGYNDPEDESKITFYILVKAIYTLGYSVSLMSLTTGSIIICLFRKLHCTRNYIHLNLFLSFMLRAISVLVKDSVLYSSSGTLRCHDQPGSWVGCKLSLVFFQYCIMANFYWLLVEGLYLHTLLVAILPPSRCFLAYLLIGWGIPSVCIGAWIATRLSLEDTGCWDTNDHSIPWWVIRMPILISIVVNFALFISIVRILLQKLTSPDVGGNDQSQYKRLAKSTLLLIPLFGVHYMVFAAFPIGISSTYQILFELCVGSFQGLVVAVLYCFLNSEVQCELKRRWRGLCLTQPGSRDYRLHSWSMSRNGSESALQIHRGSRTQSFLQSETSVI
The data set can be described thus: DiscoveRx in vitro potency, CHO-PO cells transiently transfected with rat VPAC 2 receptor DNA. On the set-up: expressed in transfected cells; host or cells: CHO-PO, transient. Format: cell-based. The procedure: Also, the cells are washed twice. […] The stimuli are present for 30 minutes. Then, the assay buffer is gently removed.

The target of data set [2] is T2, human VPAC2 (Homo sapiens, UniProt P41587).
T2 construct: expressed in transfected cells
T2 sequence (P41587 24-438): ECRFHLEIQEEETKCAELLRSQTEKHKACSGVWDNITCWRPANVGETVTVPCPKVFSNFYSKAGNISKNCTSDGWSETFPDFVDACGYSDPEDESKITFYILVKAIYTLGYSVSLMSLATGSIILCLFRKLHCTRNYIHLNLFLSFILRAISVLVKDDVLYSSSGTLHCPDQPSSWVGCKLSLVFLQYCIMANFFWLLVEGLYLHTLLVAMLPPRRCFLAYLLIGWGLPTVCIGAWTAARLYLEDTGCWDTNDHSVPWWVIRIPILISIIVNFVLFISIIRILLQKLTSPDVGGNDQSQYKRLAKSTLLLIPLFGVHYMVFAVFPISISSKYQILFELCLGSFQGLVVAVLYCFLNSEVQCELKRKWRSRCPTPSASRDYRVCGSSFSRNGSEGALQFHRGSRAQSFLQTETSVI
Description: Alpha screen cAMP in vitro potency, human VPAC2 receptor. The class given is cell-based. As to conditions: cAMP generation; single result from two analyses performed in a single run; read-out: Human VPAC2 Receptor: Alpha Screen EC50. Summed up:
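Cells were detached with enzyme-free dissociation buffer, washed into stimulation buffer and used at 50,000 cells per data point. Stimuli and AlphaScreen acceptor beads were added for 60 minutes, then lysis buffer with donor beads for 60 to 120 minutes; the AlphaScreen signal reports intracellular cAMP.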

The target of the next data set is T3, human VPAC1 (Homo sapiens, UniProt P32241).
T3 sequence (P32241 31-457): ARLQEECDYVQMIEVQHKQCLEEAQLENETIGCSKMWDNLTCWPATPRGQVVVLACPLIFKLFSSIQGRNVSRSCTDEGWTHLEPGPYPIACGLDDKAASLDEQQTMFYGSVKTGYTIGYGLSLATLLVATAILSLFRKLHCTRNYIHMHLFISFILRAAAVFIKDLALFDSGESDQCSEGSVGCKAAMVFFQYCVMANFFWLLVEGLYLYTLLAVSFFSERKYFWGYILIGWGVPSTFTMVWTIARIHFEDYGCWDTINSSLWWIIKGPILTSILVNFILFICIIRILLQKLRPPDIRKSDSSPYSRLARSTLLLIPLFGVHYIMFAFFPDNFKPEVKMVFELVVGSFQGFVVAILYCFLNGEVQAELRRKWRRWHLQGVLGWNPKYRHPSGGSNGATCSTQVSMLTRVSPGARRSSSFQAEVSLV
The data set can be described thus: Filter binding assay, membranes of cells transiently transfected with human VPAC1, 125I-labeled VIP tracer (Table 2). On the set-up: expressed in transfected cells. The following applies: read-out: Human VPAC1 Receptor Binding. An outline of the steps:
(§1)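 Membranes 2.5 μg/well; tracer ~40000 cpm; buffer 25 mM HEPES pH 7.4, 0.5% protease-free BSA; 1 h incubation, shaking. Glass-fibre filtration (0.5% polyethyleneamine presoak, 0.2% BSA block), 3× HEPES wash, dry 1 h at 60° C, scintillation count.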

For data set [3], the target named is T2, human VPAC2. The data set can be described thus: Filter binding assay, membranes of stable VPAC2 cell line, 125I-labeled VIP tracer (Table 2). As to conditions: read-out: Human VPAC2 Receptor Binding. Summed up:
as §1

Data set [4] is described as follows: Rat serum stability studies (remaining active peptide by DiscoveRx cAMP on CHO-VPAC2 cells). Format: in vitro ADME. Summed up:
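EC50 from a DiscoveRx cAMP read-out on CHO-VPAC2 cells indexes how much peptide stays active after 18 h in rat serum at 37° C without aprotinin, against an aprotinin-protected 4° C aliquot.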

A further data set has as its target T4, human VPAC2 receptor (human, UniProt P41587 24-438).
T4 sequence (looked up): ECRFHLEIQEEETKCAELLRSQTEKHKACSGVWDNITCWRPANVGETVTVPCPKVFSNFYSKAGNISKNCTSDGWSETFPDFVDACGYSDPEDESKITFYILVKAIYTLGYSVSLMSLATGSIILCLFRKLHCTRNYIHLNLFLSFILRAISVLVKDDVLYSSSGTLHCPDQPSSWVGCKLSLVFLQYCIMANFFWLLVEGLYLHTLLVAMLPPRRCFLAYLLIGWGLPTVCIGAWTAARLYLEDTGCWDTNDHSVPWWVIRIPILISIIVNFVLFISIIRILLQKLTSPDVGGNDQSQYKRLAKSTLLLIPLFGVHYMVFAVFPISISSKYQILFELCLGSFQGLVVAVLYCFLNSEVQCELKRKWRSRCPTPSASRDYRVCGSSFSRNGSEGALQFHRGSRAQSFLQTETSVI
The data set can be described thus: cell-based or functional assay.

Data set [5] addresses T5, rat VPAC2 receptor (rat, UniProt P35000 23-437).
T5 sequence (looked up): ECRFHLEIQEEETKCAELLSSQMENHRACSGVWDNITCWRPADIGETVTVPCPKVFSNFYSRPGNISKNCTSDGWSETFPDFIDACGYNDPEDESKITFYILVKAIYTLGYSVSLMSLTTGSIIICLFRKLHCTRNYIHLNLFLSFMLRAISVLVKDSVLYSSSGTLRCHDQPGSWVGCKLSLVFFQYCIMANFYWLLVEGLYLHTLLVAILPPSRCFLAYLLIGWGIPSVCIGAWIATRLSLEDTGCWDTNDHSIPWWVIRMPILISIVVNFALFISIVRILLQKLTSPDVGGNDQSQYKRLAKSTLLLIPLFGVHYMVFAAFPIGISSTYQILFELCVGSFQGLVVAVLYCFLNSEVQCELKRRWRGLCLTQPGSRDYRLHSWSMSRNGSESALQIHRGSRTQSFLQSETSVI
The data set can be described thus: cell-based or functional assay.

A further data set concerns the target T6, rat VPAC1 receptor (rat, UniProt P30083 31-459).
T6 sequence (looked up): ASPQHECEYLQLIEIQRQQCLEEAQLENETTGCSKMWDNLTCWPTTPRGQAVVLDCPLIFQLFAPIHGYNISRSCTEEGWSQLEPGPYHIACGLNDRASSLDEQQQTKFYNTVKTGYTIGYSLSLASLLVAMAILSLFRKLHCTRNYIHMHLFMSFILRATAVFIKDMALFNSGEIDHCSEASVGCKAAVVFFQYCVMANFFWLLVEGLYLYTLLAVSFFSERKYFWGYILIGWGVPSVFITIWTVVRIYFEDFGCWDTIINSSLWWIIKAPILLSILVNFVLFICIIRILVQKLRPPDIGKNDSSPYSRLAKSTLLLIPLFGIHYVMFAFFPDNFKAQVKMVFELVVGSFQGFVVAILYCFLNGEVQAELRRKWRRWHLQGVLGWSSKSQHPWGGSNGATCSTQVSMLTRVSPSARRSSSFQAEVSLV
Description: cell-based or functional assay.

Consider “Hexanoyl-HSDAVFTDNYTR[Aib]R[Aib]QVAA[Aib]KYLQSIKNKRYGGPSSGAPPPS [Agonist P346]”, for which the EC50 amounted to 0.06 nM at rat VPAC2 receptor [1] and 0.23 nM on human VPAC2 [2]. Also, the IC50 is greater than 3000 nM at human VPAC1 and 0.25 nM on human VPAC2 [3]. Besides, the “Rat Serum Stability (Estimated purity in % after 72 hours)” value in data set [4] is 27.6%. Moreover, in data set [4], the “Rat Serum Stability (estimated purity in % after 18 hours)” value is given as 43.44%.
Consider “Hexanoyl-HSDAVFTDNYTRLR[Aib]KVAA[Aib]KYLQSIKNKRYGGPSSGAPPPS [Agonist P321]”, for which the 50% effective concentration (EC50) was 0.04 nM on rat VPAC2 receptor [1] and 0.38 nM on human VPAC2 [2]. Besides, the results for the IC50 at human VPAC1 and at human VPAC2 [3] were 429 nM and 0.29 nM, respectively.
For the molecule Hexanoyl-HSDAVFTDNYTRL[hArg]KQVAAKKYLQSIKNKRYGGPSSGAPPPS (ends and bridges not checked) [P305], the “EC50 cAMP, Alpha Screen” value with human VPAC2 receptor is 0.17 nM. The “EC50 cAMP, DiscoveRx” value with rat VPAC2 receptor [5] was 0.04 nM; with rat VPAC1 receptor, 3.71 nM.
On to Hexanoyl-HSDAVFTDNYTRLRKQVAA[Aib]KYLQSIKNKRYGGPSSGAPPPS (ends and bridges not checked) [P169], for which the “EC50 cAMP, Alpha Screen” value with human VPAC2 receptor was 0.14 nM. For the same molecule, the “EC50 cAMP, DiscoveRx” value with rat VPAC2 receptor [5] worked out at 0.07 nM; in the data set with rat VPAC1 receptor, 1.32 nM.
In the same order, the values of Hexanoyl-HSDAVFTDNYTRLR[Aib]Q[Nle]AA[Aib]KYLQSIKNKRYGGPSSGAPPPS (ends and bridges not checked) [P325] are 0.24 nM, 0.04 nM and 1.46 nM.
In the same order, the values of HSDAVFTDNYTXLRXQVAAXKYLQSIXNXGGPSSGAPPPS (N-terminal hexanoyl (C6); Orn at 12, 27, 29; Aib at 15, 20) [P326] are 0.21 nM, 0.09 nM and 4.53 nM.
Turning to HSDAVFTDNYTRLRXQVAAXKYLQSIXXGGPSSGAPPPS (N-terminal hexanoyl (C6); Aib at 15, 20; Orn at 27, 28) [P352], the “EC50 cAMP, Alpha Screen” value in the data set with human VPAC2 receptor amounted to 0.14 nM. Also, the “EC50 cAMP, DiscoveRx” value with rat VPAC2 receptor [5] is 0.09 nM; with rat VPAC1 receptor, 4.35 nM.
On the same counts, the results for Hexanoyl-HSDAVFTDNYTRL[hArg][Orn]QVAAKKYLQSIKNKRYGGPSSGAPPPS (ends and bridges not checked) [P308] are 0.26 nM, 0.09 nM and 9.74 nM.
Take HSDAVFTDNYTXLRXQVAAXKYLQSIXNXXYGGPSSGAPPPS (N-terminal hexanoyl (C6); hR at 12, 27, 29, 30; Aib at 15, 20) [P338]: the “EC50 cAMP, Alpha Screen” value with human VPAC2 receptor was 0.46 nM. Besides, the “EC50 cAMP, DiscoveRx” value was 0.07 nM with rat VPAC2 receptor [5] and 5.16 nM with rat VPAC1 receptor.
With Hexanoyl-HSDAVFTDNYTRLR[Aib]QVAAK[Aib]YLQSIKNKRYGGPSSGAPPPS (ends and bridges not checked) [P264], the “EC50 cAMP, Alpha Screen” value with human VPAC2 receptor came to 0.1 nM. Further, the “EC50 cAMP, DiscoveRx” value with rat VPAC2 receptor [5] is 0.1 nM; in the data set with rat VPAC1 receptor, 4.01 nM.
As for Hexanoyl-HSDAVFTDNYTRLR[Aib]QLAAK[Aib]YLQSIKNKRYGGPSSGAPPPS (ends and bridges not checked) [P284], the “EC50 cAMP, Alpha Screen” value with human VPAC2 receptor is 0.18 nM. Further, the “EC50 cAMP, DiscoveRx” value worked out at 0.07 nM with rat VPAC2 receptor [5] and 0.44 nM in the data set with rat VPAC1 receptor.
In the same order, the values of Hexanoyl-HSEAVFTENYTRLR[Aib]QVAA[Aib]KYLQSIKNKRYGGPSSGAPPPS (ends and bridges not checked) [P314] are 0.22 nM, 0.12 nM and 29.2 nM.
Turning to Hexanoyl-HSDAVFTDNYTRLR[Aib]QIAA[Aib]KYLQSIKNKRYGGPSSGAPPPS (ends and bridges not checked) [P322], the “EC50 cAMP, Alpha Screen” value in the data set with human VPAC2 receptor worked out at 0.22 nM. Moreover, the “EC50 cAMP, DiscoveRx” value with rat VPAC2 receptor [5] is 0.04 nM; with rat VPAC1 receptor, 0.5 nM.
For Hexanoyl-HSDAVFTDNYTRLR[Aib]QKAA[Aib]KYLQSIKNKRYGGPSSGAPPPS (ends and bridges not checked) [P323], in the data set with human VPAC2 receptor, the “EC50 cAMP, Alpha Screen” value came to 0.23 nM. Further, the “EC50 cAMP, DiscoveRx” value with rat VPAC2 receptor [5] is 0.07 nM; in the data set with rat VPAC1 receptor it was 4.41 nM.
On the same counts, the results for Hexanoyl-HSDAVFTDQYTRLR[Aib]QVAA[Aib]KYLQSIKQKRYGGPSSGAPPPS (ends and bridges not checked) [P315] are 0.19 nM, 0.04 nM and 1.18 nM.
In the same order, the values of Hexanoyl-HSDAVFTDNYTRLR[Aib]KVAA[Aib]KYLQSIKNKRYGGPSSGAPPPS (ends and bridges not checked) [P321] are 0.38 nM, 0.04 nM and 0.11 nM.
In the same order, the values of Hexanoyl-HSDAVFTDNYTRLK[Aib]QVAA[Aib]KYLQSIKNKRYGGPSSGAPPPS (ends and bridges not checked) [P318] are 0.32 nM, 0.09 nM and 9.96 nM.
